# Source: US20160257732A1 (published 2016)
# Where “and” joins values, the source holds several entries; their conditions need not be identical. Identical values can stand only once. Like-named read-outs stand apart in the source and are kept apart here.
# B1: Antibody 6 (antibody, V domains shown)
# VH: QVQLQQSGPGLVKPSQTLSLTCAISGDRVSSNSAVWNWIRQSPSRGLEWLGRTYYRSKWYYDYAESVKSRIVIDPDTSKNQVSLQLNSVTPEDSAIYYCARGGHITEFGLNIDAYDIWGQGAMVTVSS
# VL: DIQMTQSPSSLSASVGDRVTISCRAQSLSSYLHWYQQKPGQPPKLLIYAATTLQSGVPSRFSGSGSGTDFTLTISTFQAEDVATYYCQQSRTFGQGTKVEIK
# B2: Antibody 8 (antibody, V domains shown)
# VH: QVQLQQSGPGLVKPSQTLSLTCVISGDTVSSNRATWNWMRQSPLRGLEWLGRTYYRSKWYNDYAVSVKSRVVINPDTSKNQVSLQLNTVTPDDSGVYFCARGGHITVFGVNIDAFDIWGLGTKVTVSS
# VL: DIQMTQSPSSLSASVGDRVTISCRASQRLNSYLHWYQQTPGQAPKLLIYATSTLQSGVSPRFSGSGSGTDFTLTISSLQPEDVATYYCQLSRTFGHGTKVEIK
# B3: Antibody 12 (antibody, V domains shown)
# VH: QVQLQQSGPGLVKPSQTLSLTCAISGDSVSSYNAVWNWIRQSPSRGLEWLGRTYYRSGWYNDYAESVKSRITINPDTSKNQFSLQLNSVTPEDTAVYYCARSGHITVFGVNVDAFDMWGQGTMVTVSS
# VL: DIQMTQSPSSLSASVGDRVTITCRTSQSLSSYTHWYQQKPGKAPKLLIYAASSRGSGVPSRFSGSGSGTDFTLTISSLQPEDFATYYCQQSRTFGQGTKVEIK
# B4: Antibody 14 (antibody, V domains shown)
# VH: QVQLQQSGPGLVKPSQTLSLTCAISGDSVSSNNAVWNWIRQSPSRGLEWLGRTYYRSKWYNDYAESVKSRITINPDTSKNQFSLQLNSVTPEDTAVYYCARSGHITVFGVNVDAFDMWGQGTTVTVSS
# VL: DIQMTQSPSSLSASVGDRVTITCRTSQSLSSYTHWYQQKPGKAPKLLIYAASSRLSGVPSRFSGSGSGTDFTLTISSLQPEDFATYYCQQSRTFGQGTKVEIK
# Key:
# Test in all cases: cell-based or functional assay
# [1] = molecular target: HA of ca A/Hong Kong/213/03 (H5N1) (influenza A virus)
# [2] = molecular target: HA of A/Wyoming/03/03 (H3N2) (influenza A virus)
# [3] = molecular target: HA of ca A/Texas/36/91 (H1N1) (influenza A virus)
# [4] = molecular target: HA of A/New Jersey/8/76 (H1N1) (influenza A virus)
# [5] = molecular target: HA of A/Wisconsin/67/05 (H3N2) (influenza A virus)
# [6] = molecular target: HA of A/Victoria/3/75 (H3N2) (influenza A virus)
# [7] = molecular target: HA of ca A/Panama/2007/99 (H3N2) (influenza A virus)
# [8] = molecular target: HA of ca A/swine/Missouri/06 (H2N3) (influenza A virus)
# [9] = molecular target: HA of ca A/Sydney/5/97 (H3N2) (influenza A virus)
# [10] = molecular target: HA of ca A/Perth/16/09 (H3N2) (influenza A virus)
# [11] = molecular target: HA of A/Fort Monmouth/1/47 (H1N1) (influenza A virus)
# [12] = molecular target: T1, HA of ca A/chicken/Hong Kong/G9/97 (H9N2) (influenza A virus)
# [13] = molecular target: T2, HA of ca A/Brit. Columbia/CN-6/04 (H7N3-LP) (influenza A virus)
# [14] = molecular target: HA of ca A/teal/Hong Kong/W312/97 (H6N1) (influenza A virus)
# [15] = molecular target: HA of ca A/New Caledonia/20/99 (H1N1) (influenza A virus)
# [16] = molecular target: HA of A/Hong Kong/8/68 (H3N2) (influenza A virus)
# [17] = molecular target: HA of A/Kawasaki/9/86 (H1N1) (influenza A virus)
# [18] = molecular target: HA of ca A/Netherlands/219/03 (H7N7) (influenza A virus)
# [19] = molecular target: HA of ca A/Beijing/262/95 (H1N1) (influenza A virus)
# [20] = molecular target: HA of ca A/Vietnam/1203/04 (H5N1) (influenza A virus)
# [21] = molecular target: HA of swine-origin A/Minnesota/11/2010 H3N2 virus (influenza A virus)
# [22] = molecular target: HA of ca A/Hong Kong/213/03 (H5N1) (influenza A virus); remark: listed apart in the source
# [23] = molecular target: HA of ca A/Texas/36/91 (H1N1) (influenza A virus); remark: listed apart in the source
# [24] = molecular target: HA of A/New Jersey/8/76 (H1N1) (influenza A virus); remark: listed apart in the source
# [25] = molecular target: HA of A/Victoria/3/75 (H3N2) (influenza A virus); remark: listed apart in the source
# [26] = molecular target: HA of A/Victoria/361/11 (H3N2) (influenza A virus)
# [27] = molecular target: HA of ca A/swine/Missouri/06 (H2N3) (influenza A virus); remark: listed apart in the source
# [28] = molecular target: HA of ca A/Sydney/5/97 (H3N2) (influenza A virus); remark: listed apart in the source
# [29] = molecular target: HA of ca A/Perth/16/09 (H3N2) (influenza A virus); remark: listed apart in the source
# [30] = molecular target: HA of A/Fort Monmouth/1/47 (H1N1) (influenza A virus); remark: listed apart in the source
# [31] = molecular target: T1, HA of ca A/chicken/Hong Kong/G9/97 …; remark: listed apart in the source
# [32] = molecular target: HA of ca A/Anhui/1/13 (H7N9) (influenza A virus)
# [33] = molecular target: T2, HA of ca A/Brit. Columbia/CN-6/04 …; remark: listed apart in the source
# [34] = molecular target: HA of ca A/teal/Hong Kong/W312/97 (H6N1) (influenza A virus); remark: listed apart in the source
# [35] = molecular target: HA of ca A/mallard/Alberta/89/85 (H6N2) (influenza A virus)
# [36] = molecular target: HA of ca A/New Caledonia/20/99 (H1N1) (influenza A virus); remark: listed apart in the source
# [37] = molecular target: HA of A/Hong Kong/8/68 (H3N2) (influenza A virus); remark: listed apart in the source
# [38] = molecular target: HA of A/Kawasaki/9/86 (H1N1) (influenza A virus); remark: listed apart in the source
# [39] = molecular target: HA of ca A/Japan/57 (H2N2) (influenza A virus)
# [40] = molecular target: HA of ca A/Netherlands/219/03 (H7N7) (influenza A virus); remark: listed apart in the source
# [41] = molecular target: HA of ca A/Beijing/262/95 (H1N1) (influenza A virus); remark: listed apart in the source
# HA of virus H1-BS10 = molecular target: HA of virus H1-BS10
# [42] = molecular target: HA of ca A/Vietnam/1203/04 (H5N1) (influenza A virus); remark: listed apart in the source
# [43] = molecular target: HA of A/Wisconsin/67/05 (H3N2) (influenza A virus); remark: listed apart in the source
# [44] = molecular target: HA of ca A/Panama/2007/99 (H3N2) (influenza A virus); remark: listed apart in the source
binder,measurement,setting,value
B1,"Neutralization IC50, H5-HK03",[1],10.4 µg/mL
same,"Neutralization IC50, H3-Wy03",[2],4.7 µg/mL
same,"Neutralization IC50, H1-TX91",[3],2.2 µg/mL
same,"Neutralization IC50, H1-NJ76",[4],2.6 µg/mL
same,"Neutralization IC50, H3-WI05",[5],6.76 µg/mL
same,"Neutralization IC50, H3-Vic75",[6],1.09 µg/mL
same,"Neutralization IC50, H3-Pa99",[7],25.8 µg/mL
same,"Neutralization IC50, H2-MO06",[8],2.9 µg/mL
same,"Neutralization IC50, H3-Syd97",[9],6.54 µg/mL
same,"Neutralization IC50, H3-Perth09",[10],5.03 µg/mL
same,"Neutralization IC50, H1-FM47",[11],3.04 µg/mL
same,"Neutralization IC50, H9-HK97",[12],16.5 µg/mL
same,"Neutralization IC50, H7-BC04",[13],> 50 µg/mL
same,"Neutralization IC50, H6-HK97",[14],3.23 µg/mL
same,"Neutralization IC50, H1-Ncal99",[15],3 µg/mL
same,"Neutralization IC50, H3-HK68",[16],2.04 µg/mL
same,"Neutralization IC50, H1-Kaw86",[17],3.51 µg/mL
same,"Neutralization IC50, H7-NLD03",[18],> 50 µg/mL
same,"Neutralization IC50, H1-BJ95",[19],20.9 µg/mL
same,"Neutralization IC50, H5-VM04",[20],8.87 µg/mL
B2,"Neutralization IC50, H5-HK03",[1],1.82 µg/mL
same,"Neutralization IC50, H3-Wy03",[2],> 50 µg/mL
same,"Neutralization IC50, H1-TX91",[3],0.7 µg/mL
same,"Neutralization IC50, H1-NJ76",[4],2.26 µg/mL
same,"Neutralization IC50, H3-WI05",[5],> 50 µg/mL
same,"Neutralization IC50, H3-Vic75",[6],3.83 µg/mL
same,"Neutralization IC50, H3-Pa99",[7],> 50 µg/mL
same,"Neutralization IC50, H2-MO06",[8],2.62 µg/mL
same,"Neutralization IC50, H3-Syd97",[9],> 50 µg/mL
same,"Neutralization IC50, H3-Perth09",[10],> 50 µg/mL
same,"Neutralization IC50, H1-FM47",[11],1.37 µg/mL
same,"Neutralization IC50, H9-HK97",[12],26.4 µg/mL
same,"Neutralization IC50, H7-BC04",[13],14.7 µg/mL
same,"Neutralization IC50, H6-HK97",[14],2.97 µg/mL
same,"Neutralization IC50, H1-Ncal99",[15],2.06 µg/mL
same,"Neutralization IC50, H3-HK68",[16],2.82 µg/mL
same,"Neutralization IC50, H1-Kaw86",[17],2.11 µg/mL
same,"Neutralization IC50, H7-NLD03",[18],12.8 µg/mL
same,"Neutralization IC50, H1-BJ95",[19],10.6 µg/mL
same,"Neutralization IC50, H5-VM04",[20],3.9 µg/mL
B3,"Neutralizing activity IC50, swine-origin A/Minnesota/11/2010",[21],1.1 µg/mL and 1.2 µg/mL
same,"Neutralization IC50, H5-HK03",[22],0.17 µg/mL
same,"Neutralization IC50, H1-TX91",[23],0.12 µg/mL
same,"Neutralization IC50, H1-NJ76",[24],0.12 µg/mL
same,"Neutralization IC50, H3-Vic75",[25],0.32 µg/mL
same,"Neutralization IC50, H3-VC11",[26],0.83 µg/mL
same,"Neutralization IC50, H2-MO06",[27],0.53 µg/mL
same,"Neutralization IC50, H3-Syd97",[28],1.56 µg/mL
same,"Neutralization IC50, H3-Perth09",[29],0.25 µg/mL
same,"Neutralization IC50, H1-FM47",[30],0.28 µg/mL
same,"Neutralization IC50, H9-HK97",[31],0.31 µg/mL
same,"Neutralization IC50, H7-ANU13",[32],2.56 µg/mL
same,"Neutralization IC50, H7-BC04",[33],0.78 µg/mL
same,"Neutralization IC50, H6-HK97",[34],0.45 µg/mL
same,"Neutralization IC50, H6-AB85",[35],0.32 µg/mL
same,"Neutralization IC50, H1-Ncal99",[36],0.61 µg/mL
same,"Neutralization IC50, H3-HK68",[37],0.42 µg/mL
same,"Neutralization IC50, H1-Kaw86",[38],0.28 µg/mL
same,"Neutralization IC50, H2-JP57",[39],0.35 µg/mL
same,"Neutralization IC50, H7-NLD03",[40],0.83 µg/mL
same,"Neutralization IC50, H1-BJ95",[41],1.31 µg/mL
same,"Neutralization IC50, H1-BS10",HA of virus H1-BS10,1.25 µg/mL
same,"Neutralization IC50, H5-VM04",[42],0.31 µg/mL
B4,"Neutralizing activity IC50, swine-origin A/Minnesota/11/2010",[21],1.4 µg/mL and 2.3 µg/mL
same,"Neutralization IC50, H5-HK03",[22],0.21 µg/mL
same,"Neutralization IC50, H1-TX91",[23],0.09 µg/mL
same,"Neutralization IC50, H1-NJ76",[24],0.11 µg/mL
same,"Neutralization IC50, H3-WI05",[43],1.19 µg/mL
same,"Neutralization IC50, H3-Vic75",[25],0.44 µg/mL
same,"Neutralization IC50, H3-VC11",[26],1.15 µg/mL
same,"Neutralization IC50, H3-Pa99",[44],4.36 µg/mL
same,"Neutralization IC50, H2-MO06",[27],0.65 µg/mL
same,"Neutralization IC50, H3-Syd97",[28],1.82 µg/mL
same,"Neutralization IC50, H3-Perth09",[29],0.47 µg/mL
same,"Neutralization IC50, H1-FM47",[30],0.44 µg/mL
same,"Neutralization IC50, H9-HK97",[31],0.44 µg/mL
same,"Neutralization IC50, H7-ANU13",[32],2.12 µg/mL
same,"Neutralization IC50, H7-BC04",[33],0.86 µg/mL
same,"Neutralization IC50, H6-HK97",[34],0.26 µg/mL
same,"Neutralization IC50, H6-AB85",[35],0.26 µg/mL
same,"Neutralization IC50, H1-Ncal99",[36],0.67 µg/mL
same,"Neutralization IC50, H3-HK68",[37],0.65 µg/mL
same,"Neutralization IC50, H1-Kaw86",[38],0.35 µg/mL
same,"Neutralization IC50, H2-JP57",[39],0.67 µg/mL
same,"Neutralization IC50, H7-NLD03",[40],1.16 µg/mL
same,"Neutralization IC50, H1-BJ95",[41],2.09 µg/mL
same,"Neutralization IC50, H1-BS10",HA of virus H1-BS10,1.93 µg/mL
same,"Neutralization IC50, H5-VM04",[42],0.33 µg/mL
